Results published in patent US20220185889.

What follows are substances tested against CTLA-4 Ig functionalized with GzmB substrate (UniProt P16410).
Sequence of CTLA-4 Ig functionalized with GzmB substrate (P16410 38-161): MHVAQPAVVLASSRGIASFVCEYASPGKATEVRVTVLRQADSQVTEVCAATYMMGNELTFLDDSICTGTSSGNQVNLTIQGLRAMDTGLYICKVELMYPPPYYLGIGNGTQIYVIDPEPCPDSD

Sequence of mannose-associated serine protease 1 (P48740 20-699): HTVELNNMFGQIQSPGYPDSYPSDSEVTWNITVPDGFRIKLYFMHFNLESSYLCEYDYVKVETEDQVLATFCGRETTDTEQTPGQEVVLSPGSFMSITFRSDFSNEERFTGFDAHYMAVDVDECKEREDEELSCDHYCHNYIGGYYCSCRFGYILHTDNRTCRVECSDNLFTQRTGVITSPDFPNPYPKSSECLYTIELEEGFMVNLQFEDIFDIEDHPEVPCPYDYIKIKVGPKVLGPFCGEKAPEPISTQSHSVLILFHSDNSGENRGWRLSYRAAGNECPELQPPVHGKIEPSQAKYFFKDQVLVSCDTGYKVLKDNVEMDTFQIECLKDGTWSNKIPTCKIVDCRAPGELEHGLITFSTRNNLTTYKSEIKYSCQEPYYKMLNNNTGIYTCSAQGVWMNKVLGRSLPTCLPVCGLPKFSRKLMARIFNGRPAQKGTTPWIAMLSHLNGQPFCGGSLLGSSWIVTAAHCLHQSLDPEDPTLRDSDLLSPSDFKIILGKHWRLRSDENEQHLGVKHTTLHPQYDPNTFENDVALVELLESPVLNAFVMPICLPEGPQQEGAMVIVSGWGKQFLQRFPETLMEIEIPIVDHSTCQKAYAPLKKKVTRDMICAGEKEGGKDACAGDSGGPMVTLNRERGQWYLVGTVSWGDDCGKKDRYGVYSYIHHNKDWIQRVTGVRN
Sequence of matrix metalloproteinase 2 (P08253 110-660): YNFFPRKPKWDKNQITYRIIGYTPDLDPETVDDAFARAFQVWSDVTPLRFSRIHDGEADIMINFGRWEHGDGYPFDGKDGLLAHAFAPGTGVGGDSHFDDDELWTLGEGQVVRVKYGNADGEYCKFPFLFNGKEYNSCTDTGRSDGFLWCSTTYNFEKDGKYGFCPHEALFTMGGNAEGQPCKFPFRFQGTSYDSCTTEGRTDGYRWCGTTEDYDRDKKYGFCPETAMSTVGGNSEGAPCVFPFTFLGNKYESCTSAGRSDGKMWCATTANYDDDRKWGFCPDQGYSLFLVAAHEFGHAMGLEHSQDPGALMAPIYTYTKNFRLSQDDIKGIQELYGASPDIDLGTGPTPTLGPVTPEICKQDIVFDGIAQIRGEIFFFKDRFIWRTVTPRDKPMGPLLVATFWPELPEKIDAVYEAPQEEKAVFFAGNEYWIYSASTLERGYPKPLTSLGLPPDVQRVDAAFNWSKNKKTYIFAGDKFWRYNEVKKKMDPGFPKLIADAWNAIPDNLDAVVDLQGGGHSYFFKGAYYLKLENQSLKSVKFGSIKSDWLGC

Substance	in vitro cleavage assay
Cathepsin B	no cross-cleavage by matrix, complement, or immune proteases
mannose-associated serine protease 1	no cross-cleavage by matrix, complement, or immune proteases
matrix metalloproteinase 15	no cross-cleavage by matrix, complement, or immune proteases
matrix metalloproteinase 9	no cross-cleavage by matrix, complement, or immune proteases
matrix metalloproteinase 2	no cross-cleavage by matrix, complement, or immune proteases
granzyme B	modified CTLA-4 Ig demonstrated specific cleavage by GzmB
